{"source": "paper PMC5815892", "about": "(Clinical cancer research : an official journal of the …, 2017)", "key": {"[1]": {"target": "purified fibulin-3 (human) (Homo sapiens (Human)., UniProt Q12805)", "sequence (Q12805 18-493)": "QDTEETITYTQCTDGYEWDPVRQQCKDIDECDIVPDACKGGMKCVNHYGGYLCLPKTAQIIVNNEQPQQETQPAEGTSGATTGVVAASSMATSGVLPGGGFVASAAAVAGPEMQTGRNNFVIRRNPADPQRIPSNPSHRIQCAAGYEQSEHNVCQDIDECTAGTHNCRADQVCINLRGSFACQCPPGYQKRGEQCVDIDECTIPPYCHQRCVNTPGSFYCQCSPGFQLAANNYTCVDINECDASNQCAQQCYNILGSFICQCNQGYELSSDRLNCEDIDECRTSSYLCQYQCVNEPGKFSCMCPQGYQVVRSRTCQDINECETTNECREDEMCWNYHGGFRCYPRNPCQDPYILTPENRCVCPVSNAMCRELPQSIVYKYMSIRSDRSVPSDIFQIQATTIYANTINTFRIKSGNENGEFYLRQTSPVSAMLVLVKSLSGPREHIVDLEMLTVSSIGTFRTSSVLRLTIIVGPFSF", "assay": "SPR"}, "[2]": {"target": "T1, free DSL-like peptide from human fibulin-3 (Thr25-Glu47) (Homo sapiens (Human).)", "T1 chain": "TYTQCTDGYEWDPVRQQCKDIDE", "assay": "ELISA"}}}
{"binder": "mAb428.2 (anti-fibulin-3 clone mAb428.2.3C11.H11.G3) (antibody, V domains shown) VH: QIQLVQSGPELKKPGETVKISCKASGYSFTTYGMSWVKQAPGKGLKWMGWINTYSGVPTYADDFKGRFAFFLETSASTAYLQINNLKNEDTATYFCARWVDYWGQGTTLTVSS VL: DIKMTQSPSSMYASLGERVTITCKASQDIKSYLSWHQQKPWKSPKTLIYYATSLADGVPSRFSGSGSGQDYSLTISSLESDDTATYYCLQHGKSPYTFGGGTKLEIK", "values": [{"measurement": "Kd", "setting": "[1]", "value": "5 ± 1", "unit": "nM"}, {"measurement": "binding result", "setting": "[2]", "value": "binds"}]}
